Experiments:
[1] = target: Recombinant human GPR49-Fc ectodomain (human); assay: direct ELISA on coated GPR49-Fc, about 0.1-250 nM, A450; table without unit, nM from the axis [nM] Ab; control whose curve in FIG. 9G is flat (see non_binding), so the fitted value lies outside the range tested and carries no meaning
[2] = target: human GPR49 (G-Protein-coupled Receptor 49) on cells (human) (UniProt O75473); assay: cell-based or functional assay
Sequence of human GPR49 (G-Protein-coupled Receptor 49) on cells (human) (O75473 22-907 limits assumed): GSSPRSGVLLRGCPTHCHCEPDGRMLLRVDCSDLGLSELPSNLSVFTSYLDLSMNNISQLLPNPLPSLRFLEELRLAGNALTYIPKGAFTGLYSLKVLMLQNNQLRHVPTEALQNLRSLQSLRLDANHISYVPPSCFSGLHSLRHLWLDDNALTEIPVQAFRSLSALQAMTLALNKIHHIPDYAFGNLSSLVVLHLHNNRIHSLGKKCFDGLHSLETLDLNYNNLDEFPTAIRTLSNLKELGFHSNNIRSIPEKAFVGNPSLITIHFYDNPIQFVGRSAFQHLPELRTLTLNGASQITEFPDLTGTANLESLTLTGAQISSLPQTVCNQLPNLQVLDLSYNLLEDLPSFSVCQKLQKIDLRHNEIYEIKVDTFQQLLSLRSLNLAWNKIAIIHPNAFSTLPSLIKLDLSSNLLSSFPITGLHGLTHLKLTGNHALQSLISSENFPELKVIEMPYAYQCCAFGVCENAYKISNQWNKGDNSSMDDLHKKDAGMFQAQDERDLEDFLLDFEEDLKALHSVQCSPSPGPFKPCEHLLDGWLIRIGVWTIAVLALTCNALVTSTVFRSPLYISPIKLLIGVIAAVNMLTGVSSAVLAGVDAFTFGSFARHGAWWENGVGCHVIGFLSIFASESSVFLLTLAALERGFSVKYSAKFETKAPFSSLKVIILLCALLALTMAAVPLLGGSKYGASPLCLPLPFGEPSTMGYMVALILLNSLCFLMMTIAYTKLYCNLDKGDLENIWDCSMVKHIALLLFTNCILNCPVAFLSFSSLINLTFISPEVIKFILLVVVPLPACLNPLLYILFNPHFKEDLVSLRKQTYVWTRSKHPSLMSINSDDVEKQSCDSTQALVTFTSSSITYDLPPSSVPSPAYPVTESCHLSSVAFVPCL

Sequence of Recombinant human GPR49-Fc ectodomain (human) (chain, as listed by the source limits assumed, form in doubt): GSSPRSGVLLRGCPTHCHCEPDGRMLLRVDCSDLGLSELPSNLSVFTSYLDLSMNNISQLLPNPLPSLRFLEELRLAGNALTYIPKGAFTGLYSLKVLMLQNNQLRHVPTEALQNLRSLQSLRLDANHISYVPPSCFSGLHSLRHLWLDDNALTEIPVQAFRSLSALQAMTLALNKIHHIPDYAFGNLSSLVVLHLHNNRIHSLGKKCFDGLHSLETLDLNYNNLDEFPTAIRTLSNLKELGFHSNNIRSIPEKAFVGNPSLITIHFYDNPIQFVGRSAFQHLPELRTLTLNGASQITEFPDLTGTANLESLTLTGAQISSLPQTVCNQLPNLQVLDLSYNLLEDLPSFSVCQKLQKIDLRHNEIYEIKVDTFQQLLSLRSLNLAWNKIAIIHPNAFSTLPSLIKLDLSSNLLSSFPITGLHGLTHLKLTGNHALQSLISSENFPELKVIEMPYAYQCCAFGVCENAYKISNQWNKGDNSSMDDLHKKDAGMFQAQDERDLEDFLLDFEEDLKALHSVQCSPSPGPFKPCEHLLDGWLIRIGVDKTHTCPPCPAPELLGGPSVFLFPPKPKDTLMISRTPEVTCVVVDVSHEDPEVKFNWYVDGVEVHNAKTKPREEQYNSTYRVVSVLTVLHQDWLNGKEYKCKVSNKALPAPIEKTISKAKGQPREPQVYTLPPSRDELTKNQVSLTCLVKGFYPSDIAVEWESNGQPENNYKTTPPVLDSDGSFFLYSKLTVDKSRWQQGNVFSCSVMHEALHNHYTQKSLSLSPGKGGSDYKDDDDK

Row | EC50 [1] [nM] | increase in proliferation, GPR49-3T3 clone 28 [2] [fold] | Substance
1 | 1580 |  | Ctrl (antibody)
2 |  | 4 | R-spondin-1 (ligand)

From US20150037324A1
